Source: patent US20190016816A1 (APTEVO RESEARCH AND DEVELOPMENT, published 2019)

Assays:
[1] = target: T1, cynomolgus CD137 on cells (cynomolgus macaque, UniProt A9YYE7 24-254); assay: flow cytometry, CHO-K1 cells expressing cynomolgus CD137, PE anti-human IgG Fc secondary, MFI (median)
T1 construct: whole, on cells; also called CHO-K1/cynomolgus CD137 cell line; cynomolgus monkey CD137 on CD3-stimulated primary CD8 T cells
Procedure: Binding studies on CHO-K1 cells lines expressing CD137 were performed by standard flow cytometry-based staining procedures. CHO-K1 cells (generated by Alligator) were transfected with human or cynomolgus macaque CD137. A typical experiment would label approximately 100,000 cells per well, in 96-well plates, with a range of 100 nM to 0.05 nM binding molecule in 50 μL of saline buffer with 2% BSA and 2 mM EDTA, for 30 min on ice, followed by washes and incubation with PE-labeled secondary antibody, goat anti-human IgG Fcγ ([…]), for 20 minutes on ice. Signal from bound molecules was detected using a LSR-II™ or a Symphony A3 flow cytometer (BD Biosciences) and analyzed by FlowJo flow cytometry analysis software. Median fluorescence intensity (MFI-median) of bound molecules on live cells was determined after exclusion of doublets cells. Nonlinear regression analysis to determine EC₅₀ values was performed in GraphPad Prism 6® graphing and statistics software.

FcγRIIIa (CD16a Val158) = target: T2, FcγRIIIa (CD16a Val158) (UniProt P08637 17-254, limits assumed); assay: flow cytometry, CHO cells stably expressing CD16a Val158, fluorescent anti-human IgG secondary, MFI (mean)
T2 construct: whole, on cells; allotype Val158 as printed
Excerpt: ALG.APV-210 contains mutations introduced to prevent interaction with Fcγ receptors (FcγR) that could lead to FcγR-mediated T-cell activation or ADCC, ADCP, CDC etc. Binding of ALG.APV-210 was therefore tested on CHO cell transfectants stably expressing the following FcγR: FcγRI (CD64), FcγRIIa (CD32a His131), FcγRIIb (CD32b), FcγRIIIa (CD16a Val158 and CD16a Phe158), and FcγRIIIb (CD16b). Untransfected CHO cells were used as negative control. A control human IgG1 molecule was used as a positive control. Different concentrations of ALG.APV-210 or control IgG1 were incubated with the FcγR-expressing cell lines, washed, and labeled with a secondary anti-human IgG reagent. Binding of ALG.APV-210 and the control IgG1 was detected by flow cytometry.

human 5T4 on cells = target: T3, human 5T4 on cells (human, UniProt Q13641 32-420); assay: flow cytometry, B16-hu5T4 cells, streptavidin-PE, normalized MFI of 2 pooled experiments
T3 construct: also called TPBG; hu5T4
T3 sequence: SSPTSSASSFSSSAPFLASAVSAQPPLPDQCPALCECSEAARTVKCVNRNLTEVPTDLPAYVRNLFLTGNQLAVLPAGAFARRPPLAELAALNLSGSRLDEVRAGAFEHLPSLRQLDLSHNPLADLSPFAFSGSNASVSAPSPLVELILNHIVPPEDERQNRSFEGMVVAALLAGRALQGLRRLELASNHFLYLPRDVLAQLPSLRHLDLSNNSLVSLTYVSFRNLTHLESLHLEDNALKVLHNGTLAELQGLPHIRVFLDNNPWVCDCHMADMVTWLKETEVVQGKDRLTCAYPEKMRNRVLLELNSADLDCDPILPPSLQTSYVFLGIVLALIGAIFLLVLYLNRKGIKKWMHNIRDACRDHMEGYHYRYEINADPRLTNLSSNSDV
Procedure: Prior to the FACS staining, all cell lines were characterized for their 5T4 expression levels using a receptor density kit (Quantum Simply Cellular, anti-human IgG, Bangs Laboratories, Inc). Adherent cell lines were cultured according to their supplier's instructions and were harvested from their cell culture flasks using Trypsin/EDTA, counted in R10 medium in a Burker chamber, and diluted in FACS buffer (PBS+0.5% BSA, 0.05% NaN₃) to a concentration of 4×10⁶ cells/mL. 50 μL (0.20×10⁶) of cell solution was added to a 96-well FACS staining plate (Falcon #351190). Cells were incubated for 20 min in 4° C. with 50 μL of the biotinylated ALG.APV-210 (2× final concentration). The antibodies were added in a serial dilution starting at 20 μg/mL titrating down in a 12 step ½ dilution down to 0.010 μg/mL. Following 2× washing with FACS buffer, cells were incubated for 30 min in 4° C. with 100 μL of a secondary antibody (streptavidin-PE, BD #554061, diluted 1/500). […] Cells were analysed for ALG.APV-210 binding using flow cytometry (FACSVerse) by gating on single cells. MFI values (secondary antibody only subtracted) from 1 out of 2 independent experiments, as well as normalized data and EC₅₀-values of pooled data from 2 experiments were determined and plotted using GraphPad Prism 7, non-linear regression log (agonist) vs. normalized response—variable slope.

T2 sequence (P08637 17-254 F176V limits assumed): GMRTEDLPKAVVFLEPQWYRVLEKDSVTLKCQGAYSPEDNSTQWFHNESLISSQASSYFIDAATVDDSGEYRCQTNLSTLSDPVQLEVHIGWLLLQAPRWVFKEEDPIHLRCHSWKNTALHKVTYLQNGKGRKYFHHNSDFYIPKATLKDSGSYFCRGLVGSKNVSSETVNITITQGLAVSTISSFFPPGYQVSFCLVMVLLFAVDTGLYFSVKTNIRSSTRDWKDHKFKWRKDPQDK
T1 sequence (A9YYE7 entry or part of it): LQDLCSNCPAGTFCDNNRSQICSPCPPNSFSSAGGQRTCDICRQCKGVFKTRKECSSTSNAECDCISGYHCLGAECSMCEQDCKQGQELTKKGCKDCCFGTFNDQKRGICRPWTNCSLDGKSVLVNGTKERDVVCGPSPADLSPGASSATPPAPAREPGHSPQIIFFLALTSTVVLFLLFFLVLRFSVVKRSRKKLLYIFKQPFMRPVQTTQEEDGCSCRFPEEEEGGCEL

B1: ALG.APV-187 (bispecific antibody)
chain: EVQLLESGGGLVQPGGSLRLSCAASGFTFSHGSMYWVRQAPGKGLEWVSSISSGSGSTYYADSVKGRFTISHDNSKNTLYLQMNSLRAEDTAVYYCARSSYYGSYYSIDYWGQGTLVTVSSGGGGSGGGGSGGGGSGGGGSDIQMTQSPSSLSASVGDRVTITCRASQSISSYLNWYQQKPGKAPKLLIYAASSLQSGVPSRFSGSGSGTDFTLTISSLQPEDFATYYCQQYYDNLPTFGQGTKLEIKSSEPKSSDKTHTCPPCPAPEAAGAPSVFLFPPKPKDTLMISRTPEVTCVVVDVSHEDPEVKFNWYVDGVEVHNAKTKPREEQYNSTYRVVSVLTVLHQDWLNGKEYKCAVSNKALPAPIEKTISKAKGQPREPQVYTLPPSRDELTKNQVSLTCLVKGFYPSDIAVEWESNGQPENNYKTTPPVLDSDGSFFLYSKLTVDKSRWQQGNVFSCSVMHEALHNHYTQKSLSLSPGSGGGGSGGGGSGGGGSPSEVQLLESGGGLVQPGGSLRLSCAASGFTFSSYAMSWVRQAPGKCLEWVSAISGSGGSTYYADSVKGRFTISRDNSKNTLYLQMNSLRAEDTAVYYCARYYGGYYSAWMDYWGQGTLVTVSSGGGGSGGGGSGGGGSGGGGSDIQMTQSPSSLSASVGDRVTITCRASQSISSFLNWYQQKPGKAPKLLIYAASSLQSGVPSRFSGSGSGTDFTLTISSLQPEDSATYYCQQTYGYLHTFGCGTKLEIKR
notes: Optimized ADAPTIR scFv-Fc-scFv homodimer with stabilizing disulfide in the 1210 scFv
EC50 [1]: 1.7 nM

B2: ALG.APV-210 (bispecific antibody)
chain: EVQLLESGGGLVQPGGSLRLSCAASGFTFSHGSMYWVRQAPGKGLEWVSSISSGSGSTYYADSVKGRFTISHDNSKNTLYLQMNSLRAEDTAVYYCARSSYYGSYYSIDYWGQGTLVTVSSGGGGSGGGGSGGGGSGGGGSDIQMTQSPSSLSASVGDRVTITCRASQSISSYLNWYQQKPGKAPKLLIYAASSLQSGVPSRFSGSGSGTDFTLTISSLQPEDFATYYCQQYYDNLPTFGQGTKLEIKEPKSSDKTHTCPPCPAPEAAGAPSVFLFPPKPKDTLMISRTPEVTCVVVDVSHEDPEVKFNWYVDGVEVHNAKTKPREEQYNSTYRVVSVLTVLHQDWLNGKEYKCAVSNKALPAPIEKTISKAKGQPREPQVYTLPPSRDELTKNQVSLTCLVKGFYPSDIAVEWESNGQPENNYKTTPPVLDSDGSFFLYSKLTVDKSRWQQGNVFSCSVMHEALHNHYTQKSLSLSPGSGGGGSGGGGSGGGGSPSEVQLLESGGGLVQPGGSLRLSCAASGFTFSSYAMSWVRQAPGKCLEWVSAISGSGGSTYYADSVKGRFTISRDNSKNTLYLQMNSLRAEDTAVYYCARYYGGYYSAWMDYWGQGTLVTVSSGGGGSGGGGSGGGGSGGGGSDIQMTQSPSSLSASVGDRVTITCRASQSISSFLNWYQQKPGKAPKLLIYAASSLQSGVPSRFSGSGSGTDFTLTISSLQPEDSATYYCQQTYGYLHTFGCGTKLEIKR
notes: Optimized ADAPTIR scFv-Fc-scFv homodimer with stabilizing disulfide in the 1210 scFv; also called 5T4-CD137 bispecific antibody
binding result (FcγRIIIa (CD16a Val158)): no binding (tested: 1000 nM)

B3: biotinylated ALG.APV-210 (bispecific antibody)
chain: EVQLLESGGGLVQPGGSLRLSCAASGFTFSHGSMYWVRQAPGKGLEWVSSISSGSGSTYYADSVKGRFTISHDNSKNTLYLQMNSLRAEDTAVYYCARSSYYGSYYSIDYWGQGTLVTVSSGGGGSGGGGSGGGGSGGGGSDIQMTQSPSSLSASVGDRVTITCRASQSISSYLNWYQQKPGKAPKLLIYAASSLQSGVPSRFSGSGSGTDFTLTISSLQPEDFATYYCQQYYDNLPTFGQGTKLEIKEPKSSDKTHTCPPCPAPEAAGAPSVFLFPPKPKDTLMISRTPEVTCVVVDVSHEDPEVKFNWYVDGVEVHNAKTKPREEQYNSTYRVVSVLTVLHQDWLNGKEYKCAVSNKALPAPIEKTISKAKGQPREPQVYTLPPSRDELTKNQVSLTCLVKGFYPSDIAVEWESNGQPENNYKTTPPVLDSDGSFFLYSKLTVDKSRWQQGNVFSCSVMHEALHNHYTQKSLSLSPGSGGGGSGGGGSGGGGSPSEVQLLESGGGLVQPGGSLRLSCAASGFTFSSYAMSWVRQAPGKCLEWVSAISGSGGSTYYADSVKGRFTISRDNSKNTLYLQMNSLRAEDTAVYYCARYYGGYYSAWMDYWGQGTLVTVSSGGGGSGGGGSGGGGSGGGGSDIQMTQSPSSLSASVGDRVTITCRASQSISSFLNWYQQKPGKAPKLLIYAASSLQSGVPSRFSGSGSGTDFTLTISSLQPEDSATYYCQQTYGYLHTFGCGTKLEIKR
notes: also called ALG.APV-210 (biotinylated for FACS detection)
EC50 (human 5T4 on cells): 14 nM
